The values below come from patent publication CN117412992A (NOVIMMUNE SA, dated 2024).

The target in test [1] is T1, recombinant human PD-L1 soluble protein, biotinylated (ACROBiosystems) (human, UniProt Q9NZQ7 19-238, biotinylated).
T1 construct: Bought soluble protein; also called 重组人PD-L1; 人PD-L1
In words: BLI (Table 7) and ELISA (Fig. 1A) on recombinant PD-L1. On the technique in general: In an ELISA, binding on a coated surface is turned into a signal by an enzyme label.

Test [2] has as its target T2, human CD47 on cells (Raji, Nalm-6, HT-1080 tumour cells; human red blood cells) (human, UniProt Q08722 19-323).
T2 construct: whole, on cells
In words: flow cytometry on human red blood cells (CD47+, PD-L1-). Background: Flow cytometry measures light scatter and fluorescence of single cells or particles in a stream.

In test [3] the target is T3, human PD-L1 on cells (hPD-L1-transfected CHO cells; IFNg-induced HT-1080 tumour cells) (human, UniProt Q9NZQ7 19-290).
T3 construct: whole, on cells
In words: flow cytometry on IFNg-preactivated PD-L1+ CD47+ HT-1080 cells, co-engagement of both targets.

Test [4] deals with T3, human PD-L1 on cells …. Briefly: cell-based competition: inhibition of human PD-1-moFc binding to IFNg-induced PD-L1+ CD47+ HT-1080 cells, CellInsight CX5.

B1: K2xS23 CD47xPD-L1 bispecific antibody (bispecific antibody, human IgG1, kappa, lambda)
heavy: not shown
light 1: not shown
light 2: QSALTQPASVSGSPGQSITISCTGTSSDVAKIPLVSWYQQHPGKAPKLMIYFASLRPSGVSNRFSGSKSGNTASLTISGLQAEDEADYYCSSWDNAGDGHVFGGGTKLTVLGQPKAAPSVTLFPPSSEELQANKATLVCLISDFYPGAVTVAWKADSSPVKAGVETTTPSKQSNNKYAASSYLSLTPEQWKSHRSYSCQVTHEGSTVEKTVAPTECS
notes: kappa-lambda body with a common heavy chain; also called K2xS23 bsAb
Turning to B1, the binding result in test [1], in test [2] and in test [3] was “binds” throughout.

B2: S100 anti-PD-L1 mAb (antibody, human IgG1, lambda, V domains shown)
VH: not shown
VL: QSVLTQPPSASGTPGQRVTISCSGSSSNIENKPVNWYQQLPGTAPKLLIYHDTTRPSGVPDRFSGSKSGTSASLAISGLQSEDEADYYCAAWDFATWPATEVFGGGTKLTVLG
notes: bivalent monospecific anti-PD-L1 IgG; also called S100抗PD-L1 mAb
B2: the IC50 (commonly the concentration that gives 50% inhibition) in test [4] is 0.84 pM.

B3: S79 anti-PD-L1 mAb (antibody, human IgG1, lambda, V domains shown)
VH: not shown
VL: QSALTQPASVSGSPGQSITISCTGTSSDVFRPPLVSWYQQHPGKAPKLMIYFASLRPSGVSNRFSGSKSGNTASLTISGLQAEDEADYYCSSWDHTGDGHVFGGGTKLTVLG
notes: also called S79_Sc3_1G7_VLCL2 aPDL1 IGLV2-23; S79抗PD-L1 mAb
As for B3, the IC50 in test [4] is 2.52 pM.
